Holding throughout (assay): pull-down
For series [1], the target named is T1, M1BP (UniProt Q9VHM3 1-418).
T1 sequence: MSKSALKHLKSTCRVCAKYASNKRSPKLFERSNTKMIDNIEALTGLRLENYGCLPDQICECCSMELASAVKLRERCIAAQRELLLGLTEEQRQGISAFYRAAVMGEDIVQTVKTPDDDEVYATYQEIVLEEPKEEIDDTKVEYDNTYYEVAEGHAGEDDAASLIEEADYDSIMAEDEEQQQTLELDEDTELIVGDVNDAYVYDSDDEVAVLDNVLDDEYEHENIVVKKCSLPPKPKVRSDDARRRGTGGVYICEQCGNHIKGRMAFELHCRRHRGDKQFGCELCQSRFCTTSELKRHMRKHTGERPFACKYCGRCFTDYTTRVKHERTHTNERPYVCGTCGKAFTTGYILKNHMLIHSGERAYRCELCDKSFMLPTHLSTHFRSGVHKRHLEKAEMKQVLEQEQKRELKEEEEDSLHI

In series [2] the target is T2, M1BP;TRF2 (Drosophila melanogaster?;Drosophila …, UniProt Q9VHM3;Q9XZD9 1-418;1-632, |).
T2 sequence 1: T1 sequence
T2 sequence 2: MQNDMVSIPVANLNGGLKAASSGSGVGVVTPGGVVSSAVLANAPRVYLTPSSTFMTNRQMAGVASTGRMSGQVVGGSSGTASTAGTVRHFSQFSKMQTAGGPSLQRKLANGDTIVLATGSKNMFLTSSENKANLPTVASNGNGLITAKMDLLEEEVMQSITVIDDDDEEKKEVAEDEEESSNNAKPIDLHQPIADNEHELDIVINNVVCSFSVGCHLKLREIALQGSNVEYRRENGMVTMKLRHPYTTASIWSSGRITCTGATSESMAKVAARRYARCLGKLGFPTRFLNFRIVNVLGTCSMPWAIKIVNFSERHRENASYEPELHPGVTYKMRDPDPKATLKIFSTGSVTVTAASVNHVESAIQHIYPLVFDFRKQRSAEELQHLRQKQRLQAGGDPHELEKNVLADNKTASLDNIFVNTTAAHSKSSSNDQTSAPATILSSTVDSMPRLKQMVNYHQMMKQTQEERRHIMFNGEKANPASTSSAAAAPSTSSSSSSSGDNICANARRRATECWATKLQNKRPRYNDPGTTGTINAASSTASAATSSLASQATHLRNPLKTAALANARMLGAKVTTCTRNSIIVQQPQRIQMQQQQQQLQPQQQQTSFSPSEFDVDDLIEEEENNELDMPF

Series [3] deals with T2, M1BP;TRF2. The source holds these as a separate data set.

Changes are numbered by the printed parent chain. Where two headings read alike, the source gives them in different places.

B1: RpLP1 wtMotif1 (-36 to +14) (dsDNA)
DNA 1: TTCGTCATCGGCGCGGTCACACTGCATATCAACTGCTCTTTCCGGTTTAG
DNA 2: CTAAACCGGAAAGAGCAGTTGATATGCAGTGTGACCGCGCCGATGACGAA
Regarding B1, the binding result in series [1] and in series [2] was “binds” in each case.

B2: RpLP1 mutMotif1 (-36 to +14) (dsDNA)
DNA 1: B1 DNA 1 with G15C, C20G, C22G
DNA 2: B1 DNA 2 with G29C, G31C, C36G
As for B2, the binding result in series [1] and in series [3] was “no binding” throughout.

B3: RpL30 wtMotif1 (-52 to +8) (dsDNA)
DNA 1: CCCGTCGGTCACACCAACACAAACGTGGTACCCATTTCCGCCTGTTCTTCCTCTTTCTTT
DNA 2: AAAGAAAGAGGAAGAACAGGCGGAAATGGGTACCACGTTTGTGTTGGTGTGACCGACGGG
B3: the binding result in series [1] and in series [2] was “binds” each time.

B4: RpL30 mutMotif1 (-52 to +8) (dsDNA)
DNA 1: B3 DNA 1 with G7C, C12G, C14G
DNA 2: B3 DNA 2 with G47C, G49C, C54G
Regarding B4, the binding result in series [1] and in series [3] was “no binding” in each case.

Values taken from publication PMC5737516.
